Results from patent publication US20200339690A1 (JOUNCE THERAPEUTICS, published 2020).
Residue numbers refer to the chain shown, from its start.

B1: J-19.h1 (antibody, human IgG4 S228P, kappa, V domains shown)
VH: QITLKESGPTLVKPTQTLTLTCTFSGFSLNTYAMGVSWIRQPPGKALEWLASIWWNGNKYNNPSLKSRLTVTKDTSKNQVVLTMTNMDPVDTATYYCAHSRIIRFTDYVMDAWGQGTLVTVSS
VL: DIQMTQSPSSLSTSVGDRVTITCRASEDIYNDLAWYQQKPGKAPKLLIYNANSLHTGVASRFSGSGSGTDFTFTISSLQPEDVATYFCQQYYDYPLTFGQGTKLEIKR
notes: Humanized, human IgG4 backbone
B2: J-19.h3 (antibody, human IgG4 S228P, kappa, V domains shown)
VH: B1 VH with I2V, T10S, V71I, T83K, M84V, V90A, L118T
VL: DIVMTQSPSSLSASVGDTVTITCRASEDIYNDLAWYQQKPGKAPQLLLYNANSLHTGVPSRFSGSGSGTDYTLTISTLQPEDFATYYCQQYYDYPLTFGPGTKVHIKR
notes: as for B1
B3: J-19.h2 (antibody, human IgG4 S228P, kappa, V domains shown)
VH: B1 VH
VL: B2 VL
notes: as for B1
B4: J-19.h4 (antibody, human IgG4 S228P, kappa, V domains shown)
VH: B1 VH with I2V, T10A, Q16H, V71I, T72S, V90E, Y95F, Q115R, L118T
VL: B2 VL
notes: as for B1

molecular target: T1, human LILRB2 expressed on cells (human, UniProt Q8N423 22-597); test: HLA-A2:LILRB2 blocking; HLA-A2 tetramer on primary human macrophages, flow cytometry
T1 construct: CHO-s cells over-expressing full-length human LILRB2, or primary human macrophages and dendritic cells; also called hLILRB2-CHO-s; hLILRB2+ CHO-s
Experimental: (§1) The potency of select humanized variants in blocking the interaction of HLA-G and HLA-A2 with primary human macrophage-expressed hLILRB2 were assessed. Primary human monocytes were differentiated into macrophages in the presence of M-CSF. After seven days of differentiation, 1×10⁵ HMDMs were plated in 96-well round-bottom tissue culture-treated plate and washed twice with 1×DPBS (Gibco) and then incubated with 50 μL primary antibody (anti-LILRB2 mAbs or control) prepared in FACS buffer (1×DPBS containing 2% HI-FBS (Sigma)+0.05% Sodium Azide). After incubation with mAbs for 30 minutes at 4° C., cells were washed twice in FACS buffer and then resuspended in 50 μL of FACS buffer containing 5 μg/mL APC-conjugated HLA-G or HLA-A2 tetramer (Fred Hutch). Cells were incubated protected from light for 30-60 minutes at 4° C. After incubation with tetramer, cells were washed in FACS buffer and re-suspended in fix buffer (1.5% paraformaldehyde diluted in 1×DPBS). Samples were analyzed using the Celesta flow cytometer analyzer (BD Biosciences).

T1 sequence (Q8N423 other isoform, or with tags, fused parts or gaps limits assumed): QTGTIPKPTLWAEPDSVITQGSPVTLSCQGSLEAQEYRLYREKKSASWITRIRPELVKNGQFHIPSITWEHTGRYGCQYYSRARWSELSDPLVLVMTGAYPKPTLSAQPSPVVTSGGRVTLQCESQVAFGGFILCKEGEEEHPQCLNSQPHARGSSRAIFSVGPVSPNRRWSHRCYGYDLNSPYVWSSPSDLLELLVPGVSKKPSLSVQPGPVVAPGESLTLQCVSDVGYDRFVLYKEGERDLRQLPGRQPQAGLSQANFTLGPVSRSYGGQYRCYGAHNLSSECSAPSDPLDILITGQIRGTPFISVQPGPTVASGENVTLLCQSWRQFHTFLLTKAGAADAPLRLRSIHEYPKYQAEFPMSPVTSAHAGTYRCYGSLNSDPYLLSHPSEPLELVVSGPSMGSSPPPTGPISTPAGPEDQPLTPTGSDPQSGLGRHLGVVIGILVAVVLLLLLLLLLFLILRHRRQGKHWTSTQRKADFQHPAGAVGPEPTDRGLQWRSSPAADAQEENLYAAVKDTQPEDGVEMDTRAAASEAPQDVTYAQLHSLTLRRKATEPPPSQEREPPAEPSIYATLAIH

| Binder | EC50 [nM] |
| --- | --- |
| B1 | 0.083 |
| B2 | 0.103 |
| B3 | 0.087 |
| B4 | 0.106 |

molecular target: T1, human LILRB2 expressed on cells; test: cell-based or functional assay

| Binder | EC50, IL-6 production by LPS-stimulated HMDMs [nM] | EC50, TNFa production by LPS-stimulated HMDMs [nM] | IC50, CCL2 production by LPS-stimulated HMDMs [nM] | IC50, IL-10 production by LPS-stimulated HMDMs [nM] |
| --- | --- | --- | --- | --- |
| B1 | 0.085 | 0.076 | 0.005 | 0.45 |
| B2 | 0.083 | 0.087 | 5.9 | 0.27 |
| B3 | 0.186 | 0.12 | 0.011 | 0.702 |
| B4 | 0.091 | 0.084 | 0.01 | 0.19 |

molecular target: T1, human LILRB2 expressed on cells; test: HLA-G:LILRB2 blocking; HLA-G tetramer on primary human macrophages, flow cytometry
Experimental: as §1

| Binder | EC50 [nM] |
| --- | --- |
| B1 | 0.162 |
| B2 | 0.113 |
| B3 | 0.122 |
| B4 | 0.131 |

molecular target: T1, human LILRB2 expressed on cells; test: flow cytometry, binding to hLILRB2 CHOs

| Binder | EC50 [nM] |
| --- | --- |
| B1 | 0.032 |
| B2 | 0.0325 |
| B3 | 0.447 |
| B4 | 0.00175 |

molecular target: T2, human LILRA5 (human, UniProt A6NI73 42-299); test: flow cytometry, LILRA5 CHOs
T2 construct: Over-expressed on CHO-s cells; also called hLILRA5
Experimental: (§2) To test for specificity to hLILRB2 and not towards any of the ten LILR family members, a multiplexed cell-based barcoding approach was used by staining cells with Far Red and/or Violet Cell Trace dyes (Thermo Scientific) according to manufacturer's protocol or left unstained. In brief, cells were washed twice with 1×DPBS and then incubated with diluted dye in 1×DPBS for 20 minutes at 37° C., mixing gently every 5-10 minutes. Dye labeling was quenched by adding equal volume of 100% HI-FBS (Sigma) to the cells. Note that LILRB1, LILRB2, LILRB3, LILRB4, and LILRB5 cell lines are also GFP-positive, while LILRA1, LILRA2, LILRA3, LILRA4, LILRA5, and LILRA6 cell lines are GFP-negative. The cells were then washed twice in 1×DPBS and then all 11 cell lines were combined per well in a 96-well round bottom tissue-culture treated plate. At least 25×10³ cells of each cell-line were plated per well. Cells were then re-suspended in primary antibody (anti-LILRB2 mAbs or control) prepared in FACS buffer (1×DPBS containing 2% HI-FBS (Sigma)+0.05% Sodium Azide). After incubation at 4° C. for 30 minutes, cells were washed twice with 1×DPBS and re-suspended in anti-human IgG-PE (BioLegend) diluted 1:200 in FACS buffer. Following a 30 minute incubation at 4° C., protected from light, cells were washed in 1×DPBS and re-suspended in fix buffer (1.5% paraformaldehyde diluted in 1×DPBS). Samples were analyzed using the Celesta flow cytometer analyzer (BD Biosciences). Geometric mean fluorescence intensity (gMFI) of PE was determined for each antibody across each cell line. Background MFI was detected with isotype control and relative binding of antibodies tested was measured as a fold over isotype.

T2 sequence (A6NI73 42-299 limits assumed): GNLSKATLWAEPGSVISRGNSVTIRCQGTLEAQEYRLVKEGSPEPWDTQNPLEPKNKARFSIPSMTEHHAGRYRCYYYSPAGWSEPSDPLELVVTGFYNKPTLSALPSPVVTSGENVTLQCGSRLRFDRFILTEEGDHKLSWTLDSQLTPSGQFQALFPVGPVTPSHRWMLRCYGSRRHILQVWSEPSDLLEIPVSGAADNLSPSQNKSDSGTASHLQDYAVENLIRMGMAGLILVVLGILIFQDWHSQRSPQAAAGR

| Binder | binding (fold over iso) | binding result |
| --- | --- | --- |
| B1 | 1.34 | no binding |
| B2 | 1.22 | no binding |
| B3 | 0.86 | no binding |

molecular target: T3, human LILRB4 (human, UniProt Q8NHJ6 22-448); test: flow cytometry, LILRB4 CHOs
T3 construct: Over-expressed on CHO-s cells; also called hLILRB4
Experimental: as §2

| Binder | binding (fold over iso) | binding result |
| --- | --- | --- |
| B1 | 1.22 | no binding |
| B2 | 1.16 | no binding |
| B3 | 0.9 | no binding |

molecular target: T4, human LILRA4 (human, UniProt P59901 24-499); test: flow cytometry, LILRA4 CHOs
T4 construct: Over-expressed on CHO-s cells; also called hLILRA4
Experimental: as §2

T4 sequence (P59901 other isoform, or with tags, fused parts or gaps limits assumed): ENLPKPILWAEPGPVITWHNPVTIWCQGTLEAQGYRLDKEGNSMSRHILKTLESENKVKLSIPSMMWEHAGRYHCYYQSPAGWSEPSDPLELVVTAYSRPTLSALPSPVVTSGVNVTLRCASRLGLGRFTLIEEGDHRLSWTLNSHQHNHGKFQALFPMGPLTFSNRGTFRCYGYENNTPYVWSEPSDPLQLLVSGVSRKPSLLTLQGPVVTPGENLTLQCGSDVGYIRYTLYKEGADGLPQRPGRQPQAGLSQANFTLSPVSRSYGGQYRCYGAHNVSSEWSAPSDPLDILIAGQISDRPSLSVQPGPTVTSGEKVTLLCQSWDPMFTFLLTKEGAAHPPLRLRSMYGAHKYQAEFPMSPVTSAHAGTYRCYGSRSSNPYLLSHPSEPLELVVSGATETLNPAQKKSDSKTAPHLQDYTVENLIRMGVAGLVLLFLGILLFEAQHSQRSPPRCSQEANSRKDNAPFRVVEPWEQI

| Binder | binding (fold over iso) | binding result |
| --- | --- | --- |
| B1 | 0.95 | no binding |
| B2 | 0.99 | no binding |
| B3 | 0.84 | no binding |
| B4 | 1.09 | no binding |

molecular target: T1, human LILRB2 expressed on cells; test: flow cytometry, LILRB2 CHOs

| Binder | binding (fold over iso) |
| --- | --- |
| B1 | 73.2 |
| B2 | 79.4 |
| B3 | 74.5 |
| B4 | 76.5 |

molecular target: T5, human LILRA1 (human, UniProt O75019 17-489); test: flow cytometry, LILRA1 CHOs
T5 construct: Over-expressed on CHO-s cells; also called hLILRA1
Experimental: as §2

T5 sequence (O75019 17-489 limits assumed): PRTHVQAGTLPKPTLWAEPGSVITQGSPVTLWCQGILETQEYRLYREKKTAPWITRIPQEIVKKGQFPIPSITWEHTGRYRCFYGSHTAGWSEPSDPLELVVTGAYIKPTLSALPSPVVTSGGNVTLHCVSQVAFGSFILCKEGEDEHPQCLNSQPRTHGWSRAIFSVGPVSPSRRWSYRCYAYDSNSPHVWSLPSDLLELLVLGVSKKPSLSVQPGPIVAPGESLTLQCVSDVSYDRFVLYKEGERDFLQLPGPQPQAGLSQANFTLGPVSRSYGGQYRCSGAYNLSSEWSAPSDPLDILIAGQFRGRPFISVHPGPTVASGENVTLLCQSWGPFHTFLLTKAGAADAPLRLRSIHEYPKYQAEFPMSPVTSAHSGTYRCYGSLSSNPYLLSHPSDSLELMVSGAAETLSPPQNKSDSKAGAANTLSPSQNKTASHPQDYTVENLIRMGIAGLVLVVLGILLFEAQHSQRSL

| Binder | binding (fold over iso) | binding result |
| --- | --- | --- |
| B1 | 0.95 | no binding |
| B2 | 1 | no binding |
| B3 | 0.89 | no binding |
| B4 | 0.99 | no binding |

molecular target: T6, human LILRB5 (human, UniProt O75023 24-590); test: flow cytometry, LILRB5 CHOs
T6 construct: Over-expressed on CHO-s cells; also called hLILRB5
Experimental: as §2

T6 sequence (O75023 24-590 P542R limits assumed): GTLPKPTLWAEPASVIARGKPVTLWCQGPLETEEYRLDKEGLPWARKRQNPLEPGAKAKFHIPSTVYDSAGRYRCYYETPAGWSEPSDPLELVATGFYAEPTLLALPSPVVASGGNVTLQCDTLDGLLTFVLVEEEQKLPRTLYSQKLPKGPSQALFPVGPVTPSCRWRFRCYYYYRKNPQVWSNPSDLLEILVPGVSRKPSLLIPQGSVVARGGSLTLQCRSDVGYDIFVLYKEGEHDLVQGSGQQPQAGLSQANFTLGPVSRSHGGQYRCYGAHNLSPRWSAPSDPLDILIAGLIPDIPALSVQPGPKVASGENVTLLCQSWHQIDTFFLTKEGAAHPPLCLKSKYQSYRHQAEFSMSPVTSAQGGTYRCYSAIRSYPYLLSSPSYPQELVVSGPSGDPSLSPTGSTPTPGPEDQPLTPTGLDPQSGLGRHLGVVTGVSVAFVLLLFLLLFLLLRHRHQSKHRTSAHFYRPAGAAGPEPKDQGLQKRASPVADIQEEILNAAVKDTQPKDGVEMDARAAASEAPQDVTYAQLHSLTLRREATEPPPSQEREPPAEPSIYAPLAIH

| Binder | binding (fold over iso) | binding result |
| --- | --- | --- |
| B1 | 1.01 | no binding |
| B2 | 0.95 | no binding |
| B3 | 0.76 | no binding |
| B4 | 1.27 | no binding |

molecular target: T7, human LILRB3 (human, UniProt O75022 24-631); test: flow cytometry, LILRB3 CHOs
T7 construct: Over-expressed on CHO-s cells; also called hLILRB3
Experimental: as §2

| Binder | binding (fold over iso) | binding result |
| --- | --- | --- |
| B1 | 1 | no binding |
| B2 | 0.97 | no binding |
| B3 | 0.81 | no binding |
| B4 | 1.24 | no binding |

molecular target: human LILRB2-His (human, UniProt Q8N423 22-460); test: SPR, Sierra Sensors MASS-2; antibody captured on anti-human Fc, LILRB2-His 65 to 0.27 nM, 1:1 Langmuir fit
Experimental: Using a Mass-2 (Sierra Sensors) high capacity amine chip preimmobilized with AffiniPure Goat Anti-Human IgG, Fcγ Fragment Specific antibody, humanized antibodies were captured on the anti-human surface and then binding to human LILRB2-His was measured by flowing six different concentrations from 65 to 0.27 nM of the analyte over the antibody surface. The anti-LILRB2 surface was removed (10 mM Glycine, pH 2.0) and recaptured between all concentrations or buffer only cycles. The data was analyzed using the Sierra Analyzer software (version 3.1.14). All curves were double subtracted and fit to a 1:1 Langmuir Fit.

Chain of human LILRB2-His (Q8N423 other isoform, or with tags, fused parts or gaps): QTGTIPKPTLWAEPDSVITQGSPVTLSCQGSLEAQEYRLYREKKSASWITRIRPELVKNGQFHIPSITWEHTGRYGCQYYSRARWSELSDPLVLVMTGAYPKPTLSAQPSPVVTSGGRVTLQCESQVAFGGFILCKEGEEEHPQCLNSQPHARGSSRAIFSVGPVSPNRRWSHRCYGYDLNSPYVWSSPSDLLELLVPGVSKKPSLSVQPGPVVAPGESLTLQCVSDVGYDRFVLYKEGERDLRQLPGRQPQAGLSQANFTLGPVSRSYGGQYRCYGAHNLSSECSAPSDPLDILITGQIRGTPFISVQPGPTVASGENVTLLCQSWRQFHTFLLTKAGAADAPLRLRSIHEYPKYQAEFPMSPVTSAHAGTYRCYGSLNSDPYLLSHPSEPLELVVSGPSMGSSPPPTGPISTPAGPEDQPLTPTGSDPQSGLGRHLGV

| Binder | Kd [nM] | koff [s⁻¹] | kon [M⁻¹ s⁻¹] |
| --- | --- | --- | --- |
| B1 | 2.73 | 0.00107 | 391000 |
| B2 | 1.96 | 0.00101 | 518000 |
| B3 | 4.58 | 0.00238 | 521000 |
| B4 | 2.33 | 0.0012 | 513000 |

molecular target: T8, human LILRA2 (human, UniProt Q8N149 24-483); test: flow cytometry, LILRA2 CHOs
T8 construct: Over-expressed on CHO-s cells; also called hLILRA2
Experimental: as §2

T8 sequence (Q8N149 24-483 S135L limits assumed): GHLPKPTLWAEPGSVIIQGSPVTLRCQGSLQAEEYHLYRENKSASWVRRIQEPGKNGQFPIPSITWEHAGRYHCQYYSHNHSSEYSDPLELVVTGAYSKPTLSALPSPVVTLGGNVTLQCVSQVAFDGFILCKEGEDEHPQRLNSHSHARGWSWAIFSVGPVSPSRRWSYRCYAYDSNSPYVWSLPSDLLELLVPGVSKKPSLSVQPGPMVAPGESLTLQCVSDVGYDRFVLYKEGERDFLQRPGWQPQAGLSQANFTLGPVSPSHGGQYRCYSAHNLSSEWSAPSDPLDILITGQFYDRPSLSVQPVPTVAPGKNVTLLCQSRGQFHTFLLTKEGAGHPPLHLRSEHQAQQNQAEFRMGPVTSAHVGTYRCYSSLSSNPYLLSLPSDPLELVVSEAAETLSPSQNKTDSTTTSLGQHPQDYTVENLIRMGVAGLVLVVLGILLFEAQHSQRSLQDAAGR

| Binder | binding (fold over iso) | binding result |
| --- | --- | --- |
| B1 | 0.88 | no binding |
| B2 | 0.83 | no binding |
| B3 | 0.66 | no binding |
| B4 | 0.96 | no binding |

molecular target: T9, human LILRA3 (human, UniProt Q8N6C8 24-439); test: flow cytometry, LILRA3 CHOs
T9 construct: Over-expressed on CHO-s cells; also called hLILRA3
Experimental: as §2

T9 sequence (Q8N6C8 24-439 limits assumed): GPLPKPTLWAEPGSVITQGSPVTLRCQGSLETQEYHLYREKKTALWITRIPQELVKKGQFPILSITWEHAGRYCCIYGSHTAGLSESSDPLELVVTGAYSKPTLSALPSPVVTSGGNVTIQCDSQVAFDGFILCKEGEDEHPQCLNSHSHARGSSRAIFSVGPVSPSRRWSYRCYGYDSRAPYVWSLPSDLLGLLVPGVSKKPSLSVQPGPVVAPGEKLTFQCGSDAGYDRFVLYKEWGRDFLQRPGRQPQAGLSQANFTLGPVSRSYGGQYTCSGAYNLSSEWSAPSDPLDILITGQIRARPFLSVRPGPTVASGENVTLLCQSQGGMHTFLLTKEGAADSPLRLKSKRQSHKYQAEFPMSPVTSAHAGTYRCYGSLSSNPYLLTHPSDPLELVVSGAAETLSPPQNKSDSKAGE

| Binder | binding (fold over iso) | binding result |
| --- | --- | --- |
| B1 | 0.97 | no binding |
| B2 | 0.92 | no binding |
| B3 | 0.83 | no binding |
| B4 | 0.99 | no binding |

molecular target: T10, human LILRA6 (human, UniProt Q6PI73 24-481); test: flow cytometry, LILRA6 CHOs
T10 construct: Over-expressed on CHO-s cells; also called hLILRA6
Experimental: as §2

T10 sequence (Q6PI73 24-481 limits assumed): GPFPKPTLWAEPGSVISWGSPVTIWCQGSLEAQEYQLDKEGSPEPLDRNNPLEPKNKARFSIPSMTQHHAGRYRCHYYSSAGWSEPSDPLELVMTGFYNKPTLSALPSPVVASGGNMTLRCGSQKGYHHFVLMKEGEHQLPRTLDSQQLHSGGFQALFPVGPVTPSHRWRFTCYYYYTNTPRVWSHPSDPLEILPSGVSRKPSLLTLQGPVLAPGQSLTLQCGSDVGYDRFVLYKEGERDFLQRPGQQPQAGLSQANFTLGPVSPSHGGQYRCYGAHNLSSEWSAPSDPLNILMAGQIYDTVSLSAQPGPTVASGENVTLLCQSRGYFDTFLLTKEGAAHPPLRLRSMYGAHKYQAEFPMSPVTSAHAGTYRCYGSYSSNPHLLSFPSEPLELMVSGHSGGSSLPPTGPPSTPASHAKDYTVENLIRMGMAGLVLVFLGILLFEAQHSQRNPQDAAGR

| Binder | binding (fold over iso) | binding result |
| --- | --- | --- |
| B1 | 0.98 | no binding |
| B2 | 1.03 | no binding |
| B3 | 0.74 | no binding |
| B4 | 1.27 | no binding |

molecular target: T11, human LILRB1 (human, UniProt Q8NHL6 24-650); test: flow cytometry, LILRB1 CHOs
T11 construct: Over-expressed on CHO-s cells; also called hLILRB1
Experimental: as §2

T11 sequence (Q8NHL6 24-650 limits assumed): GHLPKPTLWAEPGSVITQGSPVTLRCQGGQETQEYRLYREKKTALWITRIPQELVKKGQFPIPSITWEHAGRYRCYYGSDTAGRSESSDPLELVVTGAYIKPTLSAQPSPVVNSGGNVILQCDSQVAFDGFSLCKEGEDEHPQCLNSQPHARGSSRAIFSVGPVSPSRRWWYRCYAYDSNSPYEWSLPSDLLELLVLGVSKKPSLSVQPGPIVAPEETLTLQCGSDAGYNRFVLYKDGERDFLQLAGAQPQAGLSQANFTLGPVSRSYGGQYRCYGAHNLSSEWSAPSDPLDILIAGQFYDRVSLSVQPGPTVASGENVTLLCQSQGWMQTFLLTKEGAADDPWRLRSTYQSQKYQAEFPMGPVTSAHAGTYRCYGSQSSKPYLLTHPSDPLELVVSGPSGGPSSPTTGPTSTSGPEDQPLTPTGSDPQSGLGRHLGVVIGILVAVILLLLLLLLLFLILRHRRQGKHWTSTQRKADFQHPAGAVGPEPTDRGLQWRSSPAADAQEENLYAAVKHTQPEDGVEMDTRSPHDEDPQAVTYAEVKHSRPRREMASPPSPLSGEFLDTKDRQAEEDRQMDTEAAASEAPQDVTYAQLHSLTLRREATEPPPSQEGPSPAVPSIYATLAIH

| Binder | binding (fold over iso) | binding result |
| --- | --- | --- |
| B1 | 0.79 | no binding |
| B2 | 0.84 | no binding |
| B3 | 0.73 | no binding |
| B4 | 0.87 | no binding |
